Molecular target: septin-7 (commercially purified, LSBio) (UniProt Q16181)
Test: MST

Chain of septin-7 (commercially purified, LSBio) (Q16181 whole entry): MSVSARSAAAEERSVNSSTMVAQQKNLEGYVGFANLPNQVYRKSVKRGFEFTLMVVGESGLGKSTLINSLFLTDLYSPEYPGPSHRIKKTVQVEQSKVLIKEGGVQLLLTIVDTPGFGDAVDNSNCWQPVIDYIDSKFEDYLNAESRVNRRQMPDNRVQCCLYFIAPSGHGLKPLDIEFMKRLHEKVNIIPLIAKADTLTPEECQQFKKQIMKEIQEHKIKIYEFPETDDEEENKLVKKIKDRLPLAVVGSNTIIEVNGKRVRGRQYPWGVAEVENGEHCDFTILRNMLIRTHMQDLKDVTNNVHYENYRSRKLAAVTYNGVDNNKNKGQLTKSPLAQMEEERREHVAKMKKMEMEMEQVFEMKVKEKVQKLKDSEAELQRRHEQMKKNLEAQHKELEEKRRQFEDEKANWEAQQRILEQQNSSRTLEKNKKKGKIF

In the case of “SOD1 trimer, HG trimer-stabilising mutant (printed as H46G-G108H and as H46Q-G108H) (from UniProt P00441 1-154) (enzyme)”, the Kd is reported as 7.48 µM.
